Assay [1] has as its target T1, SARS-CoV-2 WT soluble RBD (residues 319-541) (SARS-CoV-2 Wuhan-Hu-1, UniProt P0DTC2).
T1 construct: also called WT RBD; WT D614G RBD gene fragment
The assay is described as follows: ELISA. The conditions noted are these: both partners purified.

Assay [2] concerns the target T2, SARS-CoV-2 WT stabilized soluble spike protein, hexahistidine-tagged (SARS-CoV-2 Wuhan-Hu-1, UniProt P0DTC2, stabilised).
T2 construct: also called WT SARS-CoV-2 S
The assay is described as follows: BLI. The conditions noted are these: both partners purified.

Data on one molecule can be found in paper PMC10570122 (iScience, 2023).

B1: COVA309-22 monoclonal antibody (human IgG1) (antibody, V domains shown)
VH: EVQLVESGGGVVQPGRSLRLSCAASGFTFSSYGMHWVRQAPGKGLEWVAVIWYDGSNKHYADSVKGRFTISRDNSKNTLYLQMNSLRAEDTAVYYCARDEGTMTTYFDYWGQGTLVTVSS
VL: EIVLTQSPSSLSASVGDRVTITCRASQSISSYLNWYQQKPGKAPKLLIYDASSLQSGVPSRFSGSGSGTDFTLTISSLQPEDFATYYCQQSYSTPPWTFGQGTKVEIK
For the molecule B1, the binding result in assay [1] and in assay [2] was “binds” each time.
